In general, Km refers to the substrate concentration at which the rate is half of its maximum.

Drawing on article PMC3818285, “Increased Biomass, Seed Yield and Stress Tolerance Is Conferred in Arabidopsis by a Novel Enzyme from the Resurrection Grass Sporobolus stapfianus That Glycosylates the Strigolactone Analogue GR24” (PLoS ONE, 2013), this text covers Km for one protein.

Substrate in the data set: [H][C@]12Cc3ccccc3[C@@]1([H])OC(=O)/C2=C/O[C@@H]1C=C(C)C(=O)O1
As to the kind of experiment: coupled enzyme assay (NADH oxidation), Lineweaver-Burk plot. The data set is classed as biochemical, Sporobolus stapfianus. To be noted: pH 7.4, leaf protein extract 25 µg, background without substrate subtracted, vector-only control extract.

B1: SDG8i (Sporobolus stapfianus) (protein)
chain: MTKTVVLYPIRGAGHLTPMIQLARLFLQHGGFNVTVAIGSSPEDSDFSALVARAAAANPSVTFHILPQPSSTPDGSNTDVTPKHKHPVVHLFDTLGAMNAPLRDFLRSLPAVDALVVDMFCYDALDVAAELELPAYFLYASGAGDLAVFLNLPSARAGMTTSFAELGDTLLTLPGAPPFKASDLPADAINDNEVARCTRRMFERMPESHGILVNSFEALETRAVRALRDGLCVPDRATPPIYCIGPLVSGGGGEKEHECLRWLDAQPDNSVVFLCFGSMGTFSKKQLHDIAVGLEKSEQRFLWVVRSPRSDDHKFGEPRPELDLDAFLRDGFLERTKERGLVLKSWAPQVDVLHHRATGAFVTHCGWNSTLEGIMAGIPLLCWPLYAEQRMNKVFIVDELKLGVEMRGYNQEVVKAEEVESKVRWVLESEAGQAIRERVLAMKDKAAEALKEGGPSHVEFVKFLKDLEAVGRP
notes: unpurified leaf protein extract; no tag stated
As for B1, the Km turned out to be 349 µM.
